Tests used:
[1] = molecular target: T1, v3.1_PPR24 (Artificial Sequence); test: ELONA; RPB-ELISA; conditions: tags: luciferase fusion; label: 5'-biotin
T1 chain: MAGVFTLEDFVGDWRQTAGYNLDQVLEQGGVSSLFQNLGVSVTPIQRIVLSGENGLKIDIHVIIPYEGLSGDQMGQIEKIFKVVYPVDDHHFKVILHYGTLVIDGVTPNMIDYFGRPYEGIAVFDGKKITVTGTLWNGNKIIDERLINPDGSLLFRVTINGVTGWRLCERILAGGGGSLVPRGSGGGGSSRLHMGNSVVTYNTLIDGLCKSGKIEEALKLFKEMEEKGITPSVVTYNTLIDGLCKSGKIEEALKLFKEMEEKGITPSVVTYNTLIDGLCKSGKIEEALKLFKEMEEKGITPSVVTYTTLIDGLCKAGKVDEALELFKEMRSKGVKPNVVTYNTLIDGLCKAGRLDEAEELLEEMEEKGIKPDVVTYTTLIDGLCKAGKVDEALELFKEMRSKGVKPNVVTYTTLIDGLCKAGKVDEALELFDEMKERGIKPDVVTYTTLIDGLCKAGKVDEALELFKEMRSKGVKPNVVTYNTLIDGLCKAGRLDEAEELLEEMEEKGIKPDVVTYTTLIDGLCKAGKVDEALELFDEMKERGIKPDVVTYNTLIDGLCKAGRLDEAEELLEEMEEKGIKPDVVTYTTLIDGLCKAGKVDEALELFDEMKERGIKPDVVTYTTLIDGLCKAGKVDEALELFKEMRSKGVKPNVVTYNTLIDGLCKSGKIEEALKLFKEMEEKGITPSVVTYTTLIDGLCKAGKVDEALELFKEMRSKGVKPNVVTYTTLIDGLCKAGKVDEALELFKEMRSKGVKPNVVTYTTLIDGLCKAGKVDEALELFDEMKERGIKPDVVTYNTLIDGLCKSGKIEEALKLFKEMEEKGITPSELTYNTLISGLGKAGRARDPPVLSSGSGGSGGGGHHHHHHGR

[2] = molecular target: T2, NL_v2_PPR23 (Artificial Sequence); test: ELONA; RPB-ELISA; conditions: tags: N-term luciferase, C-term 6xHis; label: 5'-biotin
T2 chain: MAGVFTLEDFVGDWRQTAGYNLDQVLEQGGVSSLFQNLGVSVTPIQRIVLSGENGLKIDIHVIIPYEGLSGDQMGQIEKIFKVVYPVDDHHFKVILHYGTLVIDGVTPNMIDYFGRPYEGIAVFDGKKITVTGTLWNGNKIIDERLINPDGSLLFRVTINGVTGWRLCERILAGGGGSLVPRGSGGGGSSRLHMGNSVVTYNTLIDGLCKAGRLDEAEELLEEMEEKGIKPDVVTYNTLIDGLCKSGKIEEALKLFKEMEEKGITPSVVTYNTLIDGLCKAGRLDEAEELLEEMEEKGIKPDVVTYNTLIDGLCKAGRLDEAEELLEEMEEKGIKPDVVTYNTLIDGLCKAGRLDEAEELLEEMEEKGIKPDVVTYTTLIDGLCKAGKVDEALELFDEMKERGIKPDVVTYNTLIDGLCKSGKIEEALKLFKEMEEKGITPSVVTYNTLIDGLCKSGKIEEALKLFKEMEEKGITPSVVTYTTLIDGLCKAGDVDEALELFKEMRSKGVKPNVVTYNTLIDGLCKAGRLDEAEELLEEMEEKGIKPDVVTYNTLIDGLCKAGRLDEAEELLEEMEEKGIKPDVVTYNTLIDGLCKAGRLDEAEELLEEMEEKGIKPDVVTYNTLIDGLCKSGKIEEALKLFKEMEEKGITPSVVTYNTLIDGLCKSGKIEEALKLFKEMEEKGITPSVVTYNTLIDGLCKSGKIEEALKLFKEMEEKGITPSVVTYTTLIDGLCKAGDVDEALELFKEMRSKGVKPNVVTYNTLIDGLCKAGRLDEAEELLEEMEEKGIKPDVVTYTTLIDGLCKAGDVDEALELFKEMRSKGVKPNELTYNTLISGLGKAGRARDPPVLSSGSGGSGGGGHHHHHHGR

[3] = molecular target: T3, v3.1_PPR23 (Artificial Sequence); test: ELONA; RPB-ELISA; conditions: tags: luciferase fusion; label: 5'-biotin
T3 chain: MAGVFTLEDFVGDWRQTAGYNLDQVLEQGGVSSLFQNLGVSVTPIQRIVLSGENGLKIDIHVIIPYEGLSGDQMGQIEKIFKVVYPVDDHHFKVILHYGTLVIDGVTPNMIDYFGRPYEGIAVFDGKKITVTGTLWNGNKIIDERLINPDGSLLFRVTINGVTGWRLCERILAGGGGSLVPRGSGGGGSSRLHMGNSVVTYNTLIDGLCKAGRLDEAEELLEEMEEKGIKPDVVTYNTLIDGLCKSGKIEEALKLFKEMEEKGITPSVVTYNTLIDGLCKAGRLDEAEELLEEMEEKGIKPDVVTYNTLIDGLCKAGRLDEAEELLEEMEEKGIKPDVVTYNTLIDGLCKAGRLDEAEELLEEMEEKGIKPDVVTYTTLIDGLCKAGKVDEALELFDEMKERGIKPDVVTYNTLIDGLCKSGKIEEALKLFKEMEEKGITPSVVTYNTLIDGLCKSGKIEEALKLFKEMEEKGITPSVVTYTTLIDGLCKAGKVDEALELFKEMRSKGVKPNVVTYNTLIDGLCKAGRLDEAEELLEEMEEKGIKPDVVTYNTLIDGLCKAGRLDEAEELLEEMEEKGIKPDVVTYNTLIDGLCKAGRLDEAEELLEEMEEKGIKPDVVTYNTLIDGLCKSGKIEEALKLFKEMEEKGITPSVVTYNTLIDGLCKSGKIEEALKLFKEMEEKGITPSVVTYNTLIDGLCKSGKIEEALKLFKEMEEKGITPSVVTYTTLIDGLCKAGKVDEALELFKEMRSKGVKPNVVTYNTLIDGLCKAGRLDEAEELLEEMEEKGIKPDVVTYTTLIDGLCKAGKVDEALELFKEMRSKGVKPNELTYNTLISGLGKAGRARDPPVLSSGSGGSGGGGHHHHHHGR

[4] = molecular target: T4, NL_v2_PPR22 (Artificial Sequence); test: ELONA; RPB-ELISA; conditions: tags: N-term luciferase, C-term 6xHis; label: 5'-biotin
T4 chain: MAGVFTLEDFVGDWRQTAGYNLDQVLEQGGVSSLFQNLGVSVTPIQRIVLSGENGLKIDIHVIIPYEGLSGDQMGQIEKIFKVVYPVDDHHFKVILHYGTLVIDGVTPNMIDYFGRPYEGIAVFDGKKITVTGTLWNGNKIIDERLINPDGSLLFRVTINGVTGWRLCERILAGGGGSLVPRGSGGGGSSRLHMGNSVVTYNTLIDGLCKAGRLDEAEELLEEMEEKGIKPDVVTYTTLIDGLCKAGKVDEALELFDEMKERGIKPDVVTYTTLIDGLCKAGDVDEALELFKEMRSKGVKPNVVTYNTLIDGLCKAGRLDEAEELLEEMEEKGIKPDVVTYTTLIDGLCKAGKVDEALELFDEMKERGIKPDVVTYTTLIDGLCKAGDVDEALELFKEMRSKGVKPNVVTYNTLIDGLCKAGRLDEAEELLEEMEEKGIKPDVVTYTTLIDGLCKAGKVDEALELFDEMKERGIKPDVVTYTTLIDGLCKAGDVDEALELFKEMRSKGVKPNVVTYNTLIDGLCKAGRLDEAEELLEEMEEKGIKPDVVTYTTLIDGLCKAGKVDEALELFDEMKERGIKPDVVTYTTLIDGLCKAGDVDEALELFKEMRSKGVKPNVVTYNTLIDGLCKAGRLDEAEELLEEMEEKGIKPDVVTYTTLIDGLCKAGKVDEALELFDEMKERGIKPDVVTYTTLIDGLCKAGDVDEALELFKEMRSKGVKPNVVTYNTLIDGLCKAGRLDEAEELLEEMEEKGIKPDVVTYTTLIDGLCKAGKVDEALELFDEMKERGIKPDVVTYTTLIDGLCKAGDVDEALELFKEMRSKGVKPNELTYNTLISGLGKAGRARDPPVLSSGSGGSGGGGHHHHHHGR

[5] = molecular target: T5, v3.1_PPR22 (Artificial Sequence); test: ELONA; RPB-ELISA; conditions: tags: luciferase fusion; label: 5'-biotin
T5 chain: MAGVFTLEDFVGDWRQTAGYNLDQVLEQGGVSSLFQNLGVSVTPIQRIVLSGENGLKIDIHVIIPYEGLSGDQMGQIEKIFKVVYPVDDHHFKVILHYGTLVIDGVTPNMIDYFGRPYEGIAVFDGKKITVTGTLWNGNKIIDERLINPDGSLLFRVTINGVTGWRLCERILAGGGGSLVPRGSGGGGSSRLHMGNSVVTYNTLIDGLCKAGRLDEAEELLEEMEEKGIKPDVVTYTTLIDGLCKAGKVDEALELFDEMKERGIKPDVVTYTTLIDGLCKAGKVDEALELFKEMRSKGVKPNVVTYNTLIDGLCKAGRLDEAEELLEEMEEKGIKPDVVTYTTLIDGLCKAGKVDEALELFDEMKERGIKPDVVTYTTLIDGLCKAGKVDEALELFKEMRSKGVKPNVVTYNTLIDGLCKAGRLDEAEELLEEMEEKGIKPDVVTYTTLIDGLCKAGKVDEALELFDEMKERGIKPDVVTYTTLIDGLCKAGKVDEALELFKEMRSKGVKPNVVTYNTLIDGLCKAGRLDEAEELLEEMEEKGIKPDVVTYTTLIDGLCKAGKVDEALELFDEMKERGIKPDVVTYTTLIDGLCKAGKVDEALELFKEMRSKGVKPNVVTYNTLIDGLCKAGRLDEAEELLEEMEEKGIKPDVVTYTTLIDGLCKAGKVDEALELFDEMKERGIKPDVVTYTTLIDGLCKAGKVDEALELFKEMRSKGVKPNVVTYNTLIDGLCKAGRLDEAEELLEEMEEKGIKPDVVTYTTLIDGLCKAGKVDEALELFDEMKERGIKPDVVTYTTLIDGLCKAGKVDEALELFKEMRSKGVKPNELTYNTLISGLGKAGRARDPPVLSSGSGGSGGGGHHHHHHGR

[6] = molecular target: MS2 coat protein (NL_MS2_HIS) (UniProt P03612 SEQ:194-322); test: ELONA; RPB-ELISA; non-target RNA; conditions: tags: N-term luciferase, C-term 6xHis; chain copies: 2; label: 5'-biotin
MS2 coat protein (NL_MS2_HIS), sequence (P03612 2-130): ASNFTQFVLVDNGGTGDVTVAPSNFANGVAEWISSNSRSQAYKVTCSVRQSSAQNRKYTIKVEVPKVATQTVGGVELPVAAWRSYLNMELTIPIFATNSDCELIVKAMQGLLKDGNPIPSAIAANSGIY

## GACAUGCCCCAUAGAUGUGACAAGCGACUG (ssRNA) [RNA_24]
[1]
  binding signal: 5.5e+07 luminescence

## GACAUGCUCUUUGCCAUUUCCCAUAGACUG (ssRNA) [RNA_23]
[2]
  binding signal: 2.6e+07 luminescence
[3]
  binding signal: 5.3e+07 luminescence

## GACAUGCUGAUGAUGAUGAUGAUGAGACUG (ssRNA) [RNA_22]
[4]
  binding signal: 5.6e+07 luminescence
[5]
  binding signal: 5.5e+07 luminescence

## GACAUGCUGGUGUAUCUUGUCUUUAGACUG (ssRNA) [RNA_51]
[6]
  binding result: no binding

From patent publication US20220289795, “EFFICIENT METHOD FOR PREPARING PPR PROTEIN AND USE OF THE SAME” (EditForce, Inc., published 2022)
